Source: US20050203007A1 (REGENTS OF THE UNIVERSITY OF MICHIGAN, published 2005)

What was measured:
[1] = molecular target: T1, secreted, soluble furin (human, UniProt P09958 108-715, limits assumed); assay: rapid furin inhibition assay; table lists substitutions with equal or enhanced inhibition of furin relative to the template
T1 construct: Secreted, soluble construct; also called human furin
Protocol: 3. Rapid screening of libraries. Libraries were introduced into E. coli BL21 (DE3) cells and individual, cloned transformants were grown by shaking at 37° C. in 200 μl LB containing […] kanamycin in 96-well, 0.45 μm GHP membrane filter plates (Gelman) (FIG. 2). When O.D. 600 values reached 0.4, 60 μl of culture were transferred to secondary 96-well plates (Falcon), adjusted to 10% glycerol, and stored at −80° C. These frozen stocks served as master copies of the libraries. IPTG was added to the cultures to a final concentration of 1 mM, and the cultures were allowed to express eglin c variants for one hour in the filter plate. Expressed eglin c variants were extracted from the cells with 50 mM Tris-HCl pH 8.0 containing 2 mM EDTA following freezing and thawing. These extracts were collected as filtrates by centrifugation of the filter plate above a second plate. The filtrates, representing partially purified eglin c variants, were analyzed using a rapid fluorescence-based assay for processing enzyme inhibition as described below in Section 5. […] Frozen cells were cultured in 50 to 100 ml culture volumes, and DNA maxipreps were performed; the DNA preparations were then sequenced by automated DNA sequencing. Selected variants were expressed and purified on a larger scale, and affinities for furin or Kex2 were examined quantitatively (see below).
5. Rapid protease inhibition assay. Novel eglin variants were diluted 50-fold and incubated with secreted, soluble furin (0.5 nM) for 15 min in 96-well plates. The furin substrate (Boc-Arg-Val-Arg-Arg-MCA) was added, and release of AMC was monitored continuously in a 96-well fluorescence plate reader for 20 min, as described under Example 1. […] The plasmid DNA encoding such eglin c variant inhibitors were isolated and sequenced.

[2] = molecular target: T1, secreted, soluble furin; assay: enzyme inhibition, purified variant
Protocol: (§1) Affinities of eglin variants with secreted, soluble Kex2 (hereafter “Kex2”; Brenner, C. and Fuller, R. S. (1992) Proc. Natl. Acad. Sci. USA 89: 922-926) and secreted, soluble furin (hereafter, “furin”; Bravo, D. A. et al (1994) J. Biol. Chem. 269: 25830-25837; and Komiyama & Fuller (2000) Biochemistry 39: 15156-15165) were measured by incubating variants with the enzymes (˜0.5 to 2.0 nM) for 45 min to 1 h at 21° C. in one of two enzyme assay buffers. For Kex2, the buffer was 200 mM Bistris (pH 7.27) containing 1 mM CaCl₂ and 0.1% Triton X-100; and for furin, the buffer was 20 mM NaMES (pH 7.0) containing 1 mM CaCl₂ and 0.1% Triton X-100 for furin. 100 to 200 μL aliquots of reaction mixtures were transferred into triplicate wells of opaque 96 well plates (Costar), and residual enzyme activity was measured with an fmax fluorescence micro plate reader (Molecular Devices) by monitoring hydrolysis of a fluorogenic substrate Boc-Arg-Val-Arg-Arg-MCA. Data were graphically analyzed (KaleidaGraph) with an equation developed by Green and Work (1953). Site-directed mutagenesis at P2 and P6 of eglin c generated temporary inhibitors (Table 3) and exhausted possibility to improve affinity further with this approach.

[3] = molecular target: T2, secreted, soluble Kex2 (Saccharomyces cerevisiae, UniProt P13134 114-613, limits assumed); assay: enzyme inhibition, purified variant
T2 construct: Secreted, soluble construct; also called kexin
T2 sequence (looked up): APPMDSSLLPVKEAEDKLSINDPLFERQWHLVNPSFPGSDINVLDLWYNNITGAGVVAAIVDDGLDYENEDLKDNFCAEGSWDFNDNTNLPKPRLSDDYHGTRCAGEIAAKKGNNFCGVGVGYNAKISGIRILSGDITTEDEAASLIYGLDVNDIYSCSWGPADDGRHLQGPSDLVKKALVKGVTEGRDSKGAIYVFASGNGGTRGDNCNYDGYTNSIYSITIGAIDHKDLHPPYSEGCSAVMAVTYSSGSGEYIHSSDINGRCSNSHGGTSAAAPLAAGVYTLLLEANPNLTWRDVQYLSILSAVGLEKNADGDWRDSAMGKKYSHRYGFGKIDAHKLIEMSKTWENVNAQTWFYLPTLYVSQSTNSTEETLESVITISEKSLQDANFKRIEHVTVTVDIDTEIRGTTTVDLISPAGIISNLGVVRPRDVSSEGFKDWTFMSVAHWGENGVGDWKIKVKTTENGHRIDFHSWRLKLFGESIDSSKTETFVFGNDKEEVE
Protocol: as §1

[4] = molecular target: T3, human PC7 (human, UniProt Q16549 142-667, limits assumed); assay: enzyme inhibition, purified variant
T3 sequence (looked up): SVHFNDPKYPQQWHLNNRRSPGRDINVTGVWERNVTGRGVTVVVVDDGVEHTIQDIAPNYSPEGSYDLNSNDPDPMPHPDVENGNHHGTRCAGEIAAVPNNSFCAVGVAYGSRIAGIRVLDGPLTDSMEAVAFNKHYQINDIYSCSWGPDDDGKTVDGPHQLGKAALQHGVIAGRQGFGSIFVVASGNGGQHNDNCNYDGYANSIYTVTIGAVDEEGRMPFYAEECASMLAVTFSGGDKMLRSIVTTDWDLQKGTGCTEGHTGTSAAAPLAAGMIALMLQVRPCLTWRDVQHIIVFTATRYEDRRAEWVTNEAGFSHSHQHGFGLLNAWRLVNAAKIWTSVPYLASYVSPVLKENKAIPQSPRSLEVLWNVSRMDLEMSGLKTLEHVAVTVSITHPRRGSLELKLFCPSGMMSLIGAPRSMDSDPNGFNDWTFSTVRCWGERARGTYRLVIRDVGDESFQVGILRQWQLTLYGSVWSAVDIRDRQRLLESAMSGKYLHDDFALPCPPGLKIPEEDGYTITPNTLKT

[5] = molecular target: T1, secreted, soluble furin; assay: enzyme inhibition, purified variant; remark: listed apart in the source
[6] = molecular target: T2, secreted, soluble Kex2; assay: enzyme inhibition, purified variant; remark: listed apart in the source
[7] = molecular target: T1, secreted, soluble furin; assay: equilibrium enzyme inhibition
Protocol: (§2) Thus, R1-eglin refers to substitution of Arg at position P1.
(§3) Affinities of eglin variants with secreted, soluble Kex2 (hereafter “Kex2”; Brenner, C. and Fuller, R. S. (1992) Proc. Natl. Acad. Sci. USA 89: 922-926) and secreted, soluble furin (hereafter, “furin”; Bravo, D. A. et al (1994) J. Biol. Chem. 269: 25830-25837; and Komiyama & Fuller (2000) Biochemistry 39: 15156-15165) were measured by incubating variants with the enzymes (˜0.5 to 2.0 nM) for 45 min to 1 h at 21° C. in one of two enzyme assay buffers. For Kex2, the buffer was 200 mM Bistris (pH 7.27) containing 1 mM CaCl₂ and 0.1% Triton X-100; and for furin, the buffer was 20 mM NaMES (pH 7.0) containing 1 mM CaCl₂ and 0.1% Triton X-100 for furin.

[8] = molecular target: T2, secreted, soluble Kex2; assay: equilibrium enzyme inhibition
Protocol: as §2, §3

[9] = molecular target: T1, secreted, soluble furin; assay: equilibrium enzyme inhibition, fluorogenic substrate
Protocol: as §1

[10] = molecular target: T2, secreted, soluble Kex2; assay: as above
Protocol: as §1

[11] = molecular target: T2, secreted, soluble Kex2; assay: affinity of purified variants, enzyme inhibition

T1 sequence (P09958 108-715 limits assumed): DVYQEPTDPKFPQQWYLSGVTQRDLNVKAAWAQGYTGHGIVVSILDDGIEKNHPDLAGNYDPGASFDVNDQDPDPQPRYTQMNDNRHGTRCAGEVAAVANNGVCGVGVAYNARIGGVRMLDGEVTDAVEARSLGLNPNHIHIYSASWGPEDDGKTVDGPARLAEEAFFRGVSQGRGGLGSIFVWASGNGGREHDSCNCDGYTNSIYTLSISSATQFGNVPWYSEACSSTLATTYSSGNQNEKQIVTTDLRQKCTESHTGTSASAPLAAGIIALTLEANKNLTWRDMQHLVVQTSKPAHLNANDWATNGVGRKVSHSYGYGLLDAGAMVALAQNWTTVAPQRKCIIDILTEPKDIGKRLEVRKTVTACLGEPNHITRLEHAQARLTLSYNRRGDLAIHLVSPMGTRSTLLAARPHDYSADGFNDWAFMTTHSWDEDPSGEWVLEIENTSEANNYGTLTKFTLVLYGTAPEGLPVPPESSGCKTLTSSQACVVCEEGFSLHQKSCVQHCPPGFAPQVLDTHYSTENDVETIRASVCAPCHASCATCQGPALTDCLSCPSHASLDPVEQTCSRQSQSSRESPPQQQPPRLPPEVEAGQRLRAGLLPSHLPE

B1: Asn50Asp-R4K1-eglin (designed binder)
chain: SMGSELKSFPEVVGKTVDQAREYFTLHYPQYDVYFLPEGSRVTKDLRYDRVRVFYNPGTNVVNHVPHVG
[1]
  binding result: binds

B2: Tyr49Ala-R4R1-eglin (designed binder)
chain: SMGSELKSFPEVVGKTVDQAREYFTLHYPQYDVYFLPEGSRVTRDLRANRVRVFYNPGTNVVNHVPHVG
notes: R4R1 template; N-terminal Met removed; also called Ala49-R4R1-
[2]
  Ki: 1.3 nM
  Ki ratio (to R4R1- template): 0.526
  fold increase in affinity (relative to R4R1-eglin): ~2 fold
[3]
  Ki: 1 nM
  Ki ratio (to R4R1- template): 1.1
[4]
  Ki: 2.9 nM
[5]
  Ki: 1.8 nM
[6]
  Ki: 1 nM

B3: Leu37Gly-R4K1-eglin (designed binder)
chain: SMGSELKSFPEVVGKTVDQAREYFTLHYPQYDVYFGPEGSRVTKDLRYNRVRVFYNPGTNVVNHVPHVG
notes: R4K1 template; N-terminal Met removed
[2]
  Ki: 29 nM
  Ki ratio (to R4K1- template): 0.769
[3]
  Ki: 1.6 nM
  Ki ratio (to R4K1- template): 0.625

B4: Gly40Pro-R4R1-eglin (designed binder)
chain: SMGSELKSFPEVVGKTVDQAREYFTLHYPQYDVYFLPEPSRVTRDLRYNRVRVFYNPGTNVVNHVPHVG
[1]
  binding result: binds

B5: Asp33Gly-R4K1-eglin (designed binder)
chain: SMGSELKSFPEVVGKTVDQAREYFTLHYPQYGVYFLPEGSRVTKDLRYNRVRVFYNPGTNVVNHVPHVG
[1]
  binding result: binds

B6: Tyr35Ile-R4R1-eglin (designed binder)
chain: SMGSELKSFPEVVGKTVDQAREYFTLHYPQYDVIFLPEGSRVTRDLRYNRVRVFYNPGTNVVNHVPHVG
[1]
  binding result: binds

B7: Glu49-R4R1-eglin (designed binder)
chain: SMGSELKSFPEVVGKTVDQAREYFTLHYPQYDVYFLPEGSRVTRDLRENRVRVFYNPGTNVVNHVPHVG
notes: R4R1 template; N-terminal Met removed
[4]
  Ki: 2.9 nM
[5]
  Ki: 0.53 nM
[6]
  Ki: 0.036 nM

B8: Gly40Ala-R4R1-eglin (designed binder)
chain: SMGSELKSFPEVVGKTVDQAREYFTLHYPQYDVYFLPEASRVTRDLRYNRVRVFYNPGTNVVNHVPHVG
[1]
  binding result: binds

B9: Leu47Val-R4R1-eglin (designed binder)
chain: SMGSELKSFPEVVGKTVDQAREYFTLHYPQYDVYFLPEGSRVTRDVRYNRVRVFYNPGTNVVNHVPHVG
[1]
  binding result: binds

B10: Asp33Ile-R4K1-eglin (designed binder)
chain: SMGSELKSFPEVVGKTVDQAREYFTLHYPQYIVYFLPEGSRVTKDLRYNRVRVFYNPGTNVVNHVPHVG
[1]
  binding result: binds

B11: R4-eglin (designed binder)
chain: SMGSELKSFPEVVGKTVDQAREYFTLHYPQYDVYFLPEGSRVTLDLRYNRVRVFYNPGTNVVNHVPHVG
notes: N-terminal Met removed; also called R4L1-eglin
[7]
  fold enhancement of affinity relative to L1-eglin: 2 to 3 fold
[8]
  fold increase in affinity relative to L1-eglin: 5 fold
[9]
  Ki: 56000 nM
[10]
  Ki: 100000 nM

B12: Trp49-R4R1-eglin (designed binder)
chain: SMGSELKSFPEVVGKTVDQAREYFTLHYPQYDVYFLPEGSRVTRDLRWNRVRVFYNPGTNVVNHVPHVG
notes: as for B7
[4]
  Ki: 0.47 nM
[5]
  Ki: 10 nM
[6]
  Ki: 1.2 nM

B13: Asp33Val-R4K1-eglin (designed binder)
chain: SMGSELKSFPEVVGKTVDQAREYFTLHYPQYVVYFLPEGSRVTKDLRYNRVRVFYNPGTNVVNHVPHVG
notes: as for B3
[2]
  Ki: 17 nM
  Ki ratio (to R4K1- template): 0.455
[3]
  Ki: 1.2 nM
  Ki ratio (to R4K1- template): 0.476

B14: Glu39Gly-R4R1-eglin (designed binder)
chain: SMGSELKSFPEVVGKTVDQAREYFTLHYPQYDVYFLPGGSRVTRDLRYNRVRVFYNPGTNVVNHVPHVG
[1]
  binding result: binds
[11]
  binding result: binds

B15: Met49-R4R1-eglin (designed binder)
chain: SMGSELKSFPEVVGKTVDQAREYFTLHYPQYDVYFLPEGSRVTRDLRMNRVRVFYNPGTNVVNHVPHVG
notes: as for B7
[4]
  Ki: 1.4 nM
[5]
  Ki: 1.6 nM
[6]
  Ki: 1 nM

B16: Glu39Cys-R4R1-eglin (designed binder)
chain: SMGSELKSFPEVVGKTVDQAREYFTLHYPQYDVYFLPCGSRVTRDLRYNRVRVFYNPGTNVVNHVPHVG
[1]
  binding result: binds
[11]
  binding result: binds

B17: M4K1-eglin (designed binder)
chain: SMGSELKSFPEVVGKTVDQAREYFTLHYPQYDVYFLPEGSMVTKDLRYNRVRVFYNPGTNVVNHVPHVG
notes: N-terminal Met removed
[7]
  fold decrease of Ka relative to M4R1-eglin: 4.7 fold
[8]
  fold decrease of Ka relative to M4R1-eglin: 13.2 fold
[9]
  Ki: 17000 nM
[10]
  Ki: 4.5 nM

B18: Ser49-R4R1-eglin (designed binder)
chain: SMGSELKSFPEVVGKTVDQAREYFTLHYPQYDVYFLPEGSRVTRDLRSNRVRVFYNPGTNVVNHVPHVG
notes: as for B7
[4]
  Ki: 2.5 nM
[5]
  Ki: 4.8 nM
[6]
  Ki: 0.21 nM
